A short description of the series: self-splicing fitness, log relative to wild type (ln ratio); higher = more splicing; Tetrahymena group I intron in knt gene, E. coli kanamycin selection, DiMSum; sequences stand for … in CUCUCU…GGAGGGAAAAGUUAUCAGGCAUGCACCUGGUAGCUAGUCUUUAAACCAAUAGAUUGCAUCGGUUUAAAAGGCAAGACCGUCAAAUUGCGGGAAAGGGGUCAACAGCCGUUCAGUACCAAGUCUCAGGGGAAACUUUGAGAUGGCCUUGCAAAGGGUAUGGUAAUAAGCUGACGGACAUGGUCCUAACCACGCAGCCAAGUCCUAAGUCAACAGAUCUUCUGUUGAUAUGGAUGCAGUUCACAGACUAAAUGUCGGUCGGGGAAGAUGUAUUCUUCUCAUAAGAUAUAGUCGGACCUCUCCUUAAUGGGAGCUAGCGGAUGAAGUGAUGCAACACUGGAGCCGCUGGGAACUAAUUUGUAUGCGAAAGUAUAUUGAUUAGUUUUGGAGUACUCGUGGUCG
In outline: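 DiMSum derived fitness as the error-weighted combination of fold changes across replicates, kanamycin versus no kanamycin, normalised to wild type. E. coli BL21(DE3) held the library, which randomised all eight P1ex-region intron nucleotides within the knt kanamycin-resistance gene on pET-22b(+). Six replicate transformations grew overnight at 37°C or 30°C on LB agar with or without 25 μg/mL kanamycin, also containing 100 μg/mL carbenicillin, 50 μM IPTG and 0.2% rhamnose, and pooled colonies were amplicon-sequenced on an Illumina HiSeq 2500.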

± gives the uncertainty stated by the source.

As for GGUGAGCAAUAUUACGGCAU, the “self-splicing fitness (ln)” value reads like this: (30 °C) -1.66 ± 0.25; (37 °C) -1.05 ± 0.28.

Consider CGACAGCAAUAUUACGACAU, for which the “self-splicing fitness (ln)” value reads like this: (30 °C) -2.444 ± 0.014; (37 °C) -1.33 ± 0.033.

GACGAGCAAUAUUACGGAUG: the “self-splicing fitness (ln)” value was -2.45 ± 0.24 (30 °C) and -1.12 ± 0.16 (37 °C).

In the case of AAGAAGCAAUAUUACGGUUG, the “self-splicing fitness (ln)” value reads like this: (30 °C) -2.72 ± 0.092; (37 °C) -1.32 ± 0.11.

Take CCGAAGCAAUAUUACGCCAG: the “self-splicing fitness (ln)” value runs as follows: (30 °C) -1.32 ± 0.11; (37 °C) -0.531 ± 0.13.

In the case of UGCAAGCAAUAUUACGGUUA, the “self-splicing fitness (ln)” value (30 °C) is 0.147 ± 0.075 and the “self-splicing fitness (ln)” value (37 °C) amounted to 0.11 ± 0.078.

Take GCUUAGCAAUAUUACGUAAA: the “self-splicing fitness (ln)” value was -0.47 ± 0.084 (30 °C) and 0.317 ± 0.1 (37 °C).

Turning to CGCUAGCAAUAUUACGCCCU, the “self-splicing fitness (ln)” value (30 °C) was 0.0689 ± 0.15 and the “self-splicing fitness (ln)” value (37 °C) was -0.957 ± 0.24.

As for GGUCAGCAAUAUUACGUUAG, the “self-splicing fitness (ln)” value (30 °C) is -2.17 ± 0.14 and the “self-splicing fitness (ln)” value (37 °C) is -1.68 ± 0.18.

Consider UCCCAGCAAUAUUACGGAAG, for which the “self-splicing fitness (ln)” value is, setting by setting: (30 °C) -3.24 ± 0.12; (37 °C) -2.88 ± 0.23.

AGGAAGCAAUAUUACGACGC: the “self-splicing fitness (ln)” value is, setting by setting: (30 °C) -0.0969 ± 0.13; (37 °C) -0.574 ± 0.14.

Consider CUAGAGCAAUAUUACGAGCU, for which the “self-splicing fitness (ln)” value (30 °C) was -3.73 ± 0.31 and the “self-splicing fitness (ln)” value (37 °C) was -3.37 ± 0.28.

Turning to CAAAAGCAAUAUUACGUCGU, the “self-splicing fitness (ln)” value is, setting by setting: (30 °C) -3.83 ± 0.12; (37 °C) -1.54 ± 0.1.

Regarding UGGUAGCAAUAUUACGGAGG, the “self-splicing fitness (ln)” value is, setting by setting: (30 °C) -3.85 ± 0.27; (37 °C) -1.56 ± 0.16.

With GCUUAGCAAUAUUACGCGCA, the “self-splicing fitness (ln)” value by setting is: (30 °C) -1.37 ± 0.16; (37 °C) 0.00629 ± 0.17.

Take GCGUAGCAAUAUUACGUGGC: the “self-splicing fitness (ln)” value is, setting by setting: (30 °C) -3.48 ± 0.23; (37 °C) -2.75 ± 0.31.

Turning to CAGAAGCAAUAUUACGCACC, the “self-splicing fitness (ln)” value is, setting by setting: (30 °C) -3.18 ± 0.41; (37 °C) -2.1 ± 0.46.

AUGCAGCAAUAUUACGAUGU: the “self-splicing fitness (ln)” value (30 °C) was -0.358 ± 0.061 and the “self-splicing fitness (ln)” value (37 °C) amounted to 0.146 ± 0.085.

On to GAUCAGCAAUAUUACGCUGC, for which the “self-splicing fitness (ln)” value reads like this: (30 °C) -3.18 ± 0.19; (37 °C) -2.18 ± 0.23.

As to GUUAAGCAAUAUUACGAAAC, the “self-splicing fitness (ln)” value reads like this: (30 °C) -3 ± 0.48; (37 °C) -2.83 ± 0.48.

Regarding GUGUAGCAAUAUUACGACAC, the “self-splicing fitness (ln)” value is, setting by setting: (30 °C) -2.68 ± 0.18; (37 °C) -2.17 ± 0.2.

As to CCCCAGCAAUAUUACGGCUC, the “self-splicing fitness (ln)” value (30 °C) was -3.43 ± 0.18 and the “self-splicing fitness (ln)” value (37 °C) was -2.75 ± 0.33.

As to CGAAAGCAAUAUUACGAUCU, the “self-splicing fitness (ln)” value was -0.599 ± 0.076 (30 °C) and 0.313 ± 0.11 (37 °C).

For UCGCAGCAAUAUUACGCUCU, the “self-splicing fitness (ln)” value reads like this: (30 °C) -3.55 ± 0.23; (37 °C) -1.35 ± 0.13.

For the sequence ACGAAGCAAUAUUACGUAGU, the “self-splicing fitness (ln)” value is, setting by setting: (30 °C) -3.12 ± 0.12; (37 °C) -2.13 ± 0.17.

On to CAGAAGCAAUAUUACGCUUG, for which the “self-splicing fitness (ln)” value reads like this: (30 °C) -4.25 ± 0.16; (37 °C) -2.99 ± 0.14.

In the case of GUUAAGCAAUAUUACGGUUC, the “self-splicing fitness (ln)” value runs as follows: (30 °C) -1.6 ± 0.081; (37 °C) -0.156 ± 0.12.

Take GAAGAGCAAUAUUACGACGU: the “self-splicing fitness (ln)” value runs as follows: (30 °C) -0.922 ± 0.16; (37 °C) -0.536 ± 0.18.

For UGUUAGCAAUAUUACGUAAU, the “self-splicing fitness (ln)” value was -2.96 ± 0.3 (30 °C) and -1.02 ± 0.21 (37 °C).

Regarding UCCUAGCAAUAUUACGUUCC, the “self-splicing fitness (ln)” value was -2.61 ± 0.27 (30 °C) and -1.72 ± 0.4 (37 °C).

CAGCAGCAAUAUUACGGCGG: the “self-splicing fitness (ln)” value reads like this: (30 °C) -1.93 ± 0.093; (37 °C) -1.5 ± 0.16.

With CAUAAGCAAUAUUACGGUAC, the “self-splicing fitness (ln)” value is -2.89 ± 0.19 (30 °C) and -2.14 ± 0.29 (37 °C).

For UAUAAGCAAUAUUACGUUCA, the “self-splicing fitness (ln)” value (30 °C) is -0.586 ± 0.09 and the “self-splicing fitness (ln)” value (37 °C) was -0.352 ± 0.14.

As to UUACAGCAAUAUUACGUAGG, the “self-splicing fitness (ln)” value was -1.12 ± 0.066 (30 °C) and -1.19 ± 0.096 (37 °C).

Turning to CAAAAGCAAUAUUACGCGAU, the “self-splicing fitness (ln)” value by setting is: (30 °C) -4 ± 0.3; (37 °C) -1.78 ± 0.23.

Turning to GUAAAGCAAUAUUACGUCUU, the “self-splicing fitness (ln)” value (30 °C) is -0.455 ± 0.1 and the “self-splicing fitness (ln)” value (37 °C) turned out to be 0.291 ± 0.12.

On to UAGCAGCAAUAUUACGCCGA, for which the “self-splicing fitness (ln)” value runs as follows: (30 °C) -0.884 ± 0.14; (37 °C) 0.482 ± 0.14.
